Experimental data reported in patent publication EP4663654A1 (Hangzhou Sciwind Biosciences Co., Ltd., dated 2025).
Starred links: 1 amine or outer side, 2 acyl side, 3 side chain; linkers in the order of their positions; H or OH if unused. Non-standard residues stand in square brackets, D forms with d. *: point of attachment. C20 diacid = O=C(O)CCCCCCCCCCCCCCCCCCC(=O)*; γGlu = O=C(O)[C@H](CCC(=O)[*:2])N[*:1]; Hyp = O=C(O)[C@@H]1C[C@@H](O)CN1

Molecular target: T1, human amylin receptor (AMY3) on CHO-K1/Ga15/AMY3 amylin receptor/CRE-luc cells (human, UniProt P30988 25-474; O60896 24-148)
T1 sequence (looked up) 1: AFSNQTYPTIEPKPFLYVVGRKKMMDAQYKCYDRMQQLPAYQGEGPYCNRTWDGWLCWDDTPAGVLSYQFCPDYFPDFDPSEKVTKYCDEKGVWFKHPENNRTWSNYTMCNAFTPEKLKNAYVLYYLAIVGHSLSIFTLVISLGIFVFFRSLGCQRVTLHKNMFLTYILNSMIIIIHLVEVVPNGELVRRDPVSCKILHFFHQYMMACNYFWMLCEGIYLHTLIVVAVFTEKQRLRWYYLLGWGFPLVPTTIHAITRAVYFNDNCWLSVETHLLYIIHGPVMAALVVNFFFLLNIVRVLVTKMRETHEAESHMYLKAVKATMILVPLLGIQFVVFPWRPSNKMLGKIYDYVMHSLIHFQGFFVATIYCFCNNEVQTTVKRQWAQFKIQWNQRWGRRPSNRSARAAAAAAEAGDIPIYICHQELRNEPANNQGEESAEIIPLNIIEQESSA
T1 sequence (looked up) 2: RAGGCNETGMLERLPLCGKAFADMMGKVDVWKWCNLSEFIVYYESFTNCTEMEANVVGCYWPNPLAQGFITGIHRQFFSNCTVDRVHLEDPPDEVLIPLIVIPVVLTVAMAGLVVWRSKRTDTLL
Experiment: cell-based or functional assay

B1: polypeptide derivative M52 (peptide)
peptide: {C20 diacid-γGlu}-ASQLSTAATQRLADFLRHSSHNLKPILPPTNVGSNT[Hyp]-NH2
SMILES: CC[C@H](C)[C@H](NC(=O)[C@@H]1CCCN1C(=O)[C@H](CCCCN)NC(=O)[C@H](CC(C)C)NC(=O)[C@H](CC(N)=O)NC(=O)[C@H](Cc1c[nH]cn1)NC(=O)[C@H](CO)NC(=O)[C@H](CO)NC(=O)[C@H](Cc1c[nH]cn1)NC(=O)[C@H](CCCNC(=N)N)NC(=O)[C@H](CC(C)C)NC(=O)[C@H](Cc1ccccc1)NC(=O)[C@H](CC(=O)O)NC(=O)[C@H](C)NC(=O)[C@H](CC(C)C)NC(=O)[C@H](CCCNC(=N)N)NC(=O)[C@H](CCC(N)=O)NC(=O)[C@@H](NC(=O)[C@H](C)NC(=O)[C@H](C)NC(=O)[C@@H](NC(=O)[C@H](CO)NC(=O)[C@H](CC(C)C)NC(=O)[C@H](CCC(N)=O)NC(=O)[C@H](CO)NC(=O)[C@H](C)NC(=O)CC[C@H](NC(=O)CCCCCCCCCCCCCCCCCCC(=O)O)C(=O)O)[C@@H](C)O)[C@@H](C)O)C(=O)N[C@@H](CC(C)C)C(=O)N1CCC[C@H]1C(=O)N1CCC[C@H]1C(=O)N[C@H](C(=O)N[C@@H](CC(N)=O)C(=O)N[C@H](C(=O)NCC(=O)N[C@@H](CO)C(=O)N[C@@H](CC(N)=O)C(=O)N[C@H](C(=O)N1C[C@H](O)C[C@H]1C(N)=O)[C@@H](C)O)C(C)C)[C@@H](C)O
- EC50/nM, CRE-luciferase reporter in amylin receptor/CRE-luc CHO cells: 0.09 nM
- Relative activity (the EC50 ratio of Cagrilintide to the compound): 178%
